Biological target: human insulin receptor overexpressed on Rat-1 cells (Rat-1/hIR) (human) (UniProt P06213)

- EC50 of IR Y1150 phosphorylation in Rat-1/hIR cells, various concentrations of insulin for 5 min, western blot, four-parameter logistic fit: 86.4 nM
Substance: insulin from bovine pancreas (ligand)

Source: PMC9076861
